Laboratory results reported in publication PMC5767869.

What was measured:
[1] = biological target: Alexa Fluor 488-labelled K409R half-Fc (IdeS fragment of α-gp120 K409R IgG1WT) (human); assay: fluorescence correlation spectroscopy (FCS); constant 50 pM Alexa Fluor 488-labelled half-Fc, 1:3 or 1:4 dilutions of unlabelled half-Ab (IgG1C→S), equilibrated at room temperature overnight; diffusion times of all four half-Fc/half-Ab combinations globally fitted with one KD each for F405L homodimerisation, K409R homodimerisation and heterodimerisation
[2] = biological target: Alexa Fluor 488-labelled F405L half-Fc (IdeS fragment of α-RSV F405L IgG1WT) (human); assay: as above
[3] = biological target: α-gp120 (clone b12) human IgG1 K409R lacking hinge disulfides (C226S/C229S), half-Ab (human); assay: FRET or BRET; Fab-arm exchange between donor (Alexa Fluor 488)- and acceptor (Alexa Fluor 594)-labelled IgG1C→S Abs, 200 nM each, PBS, 25 °C, no reductant; monoexponential exchange rate taken as the rate of dissociation of the full Ab (half-Ab dimer) into half-Abs
[4] = biological target: α-RSV (clone B21M) human IgG1 F405L lacking hinge disulfides (C226S/C229S), half-Ab (human); assay: as above
α-RSV (clone B21M) human IgG1 F405L lacking hinge disulfides (C226S/C229S), half-Ab (human), sequence (heavy, as listed by the source, chain 1 of 2): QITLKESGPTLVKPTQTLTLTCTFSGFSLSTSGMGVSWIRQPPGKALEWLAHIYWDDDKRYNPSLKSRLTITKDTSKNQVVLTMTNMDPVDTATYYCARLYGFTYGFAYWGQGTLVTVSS
α-RSV (clone B21M) human IgG1 F405L lacking hinge disulfides (C226S/C229S), half-Ab (human), sequence (light, as listed by the source, chain 2 of 2): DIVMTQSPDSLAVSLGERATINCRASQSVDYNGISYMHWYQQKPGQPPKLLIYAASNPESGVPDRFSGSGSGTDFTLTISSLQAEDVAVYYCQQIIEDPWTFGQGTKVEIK

[5] = biological target: α-RSV (clone B21M) human IgG1 F405L lacking hinge disulfides (C226S/C229S), half-Ab (human); assay: hydrophobic interaction chromatography; products of cFAE analysed for the share of bsAb

Work on “α-gp120 (clone b12) human IgG1 K409R lacking hinge disulfides (C226S/C229S), half-Ab (antibody)” yielded a Kd [1] of 0.337 nM, a Kd [2] of 0.0656 nM and a koff [3] of 0.000673 s⁻¹. For the same substance, the koff [4] was 0.000198 s⁻¹ and the percent bsAb after cFAE [5] was over 90%.
